Results reported in US20190177370A1 (TOKYO UNIVERSITY OF PHARMACY AND LIFE SCIENCES, published 2019).
Square brackets hold non-standard residues; d marks the D form. Primed or numbered codes have the meaning given here. m‑dPEG(4) = m-dPEG(4) acid, coupled to Acp, with Acp forms R^111 of Formula (4); 2Nal = N[C@@H](Cc1ccc2ccccc2c1)C(=O)O; Chg = N[C@H](C(=O)O)C1CCCCC1; Ahx = NCCCCCC(=O)O

T1: myostatin (UniProt O14793 267-375, limits assumed)
T1 sequence (looked up): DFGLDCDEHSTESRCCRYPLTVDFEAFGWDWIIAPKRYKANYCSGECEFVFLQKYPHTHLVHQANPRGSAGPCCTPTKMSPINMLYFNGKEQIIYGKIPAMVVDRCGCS

B1: PDM-62 (peptide)
peptide: {m‑dPEG(4)-Ahx}-WRIESIKIQIISKLRL-NH2
B2: PDM-63 (peptide)
peptide: {m‑dPEG(4)-Ahx}-WYIESIKIQIWSKLRL-NH2
B3: nPDM-46 (peptide)
peptide: H-WYIESIKIQIISKLRL-NH2
B4: nPDM-55 (peptide)
peptide: H-WYIEWIKIQIWSKLRL-NH2
B5: nPDM-63 (peptide)
peptide: H-WYIESIKIQIWSKLRL-NH2
B6: PDM-28 (peptide)
peptide: {m‑dPEG(4)-Ahx}-YWIEWIKIQIISKLRL-NH2
B7: nPDM-55/E31K (peptide)
peptide: H-WYIKWIKIQIWSKLRL-NH2
B8: nPDM-55/E31R (peptide)
peptide: H-WYIRWIKIQIWSKLRL-NH2
B9: nPDM-55/E31Q (peptide)
peptide: H-WYIQWIKIQIWSKLRL-NH2
B10: nPDM-64 (peptide)
peptide: H-WYIRWIK[Chg]QIWSKLRL-NH2
SMILES: CC[C@H](C)[C@H](NC(=O)[C@H](CCC(N)=O)NC(=O)[C@@H](NC(=O)[C@H](CCCCN)NC(=O)[C@@H](NC(=O)[C@H](Cc1c[nH]c2ccccc12)NC(=O)[C@H](CCCNC(=N)N)NC(=O)[C@@H](NC(=O)[C@H](Cc1ccc(O)cc1)NC(=O)[C@@H](N)Cc1c[nH]c2ccccc12)[C@@H](C)CC)[C@@H](C)CC)C1CCCCC1)C(=O)N[C@@H](Cc1c[nH]c2ccccc12)C(=O)N[C@@H](CO)C(=O)N[C@@H](CCCCN)C(=O)N[C@@H](CC(C)C)C(=O)N[C@@H](CCCNC(=N)N)C(=O)N[C@@H](CC(C)C)C(N)=O
B11: nPDM-65 (peptide)
peptide: H-WYIRWIKIQIWSK[Chg]RL-NH2
SMILES: CC[C@H](C)[C@H](NC(=O)[C@H](CCC(N)=O)NC(=O)[C@@H](NC(=O)[C@H](CCCCN)NC(=O)[C@@H](NC(=O)[C@H](Cc1c[nH]c2ccccc12)NC(=O)[C@H](CCCNC(=N)N)NC(=O)[C@@H](NC(=O)[C@H](Cc1ccc(O)cc1)NC(=O)[C@@H](N)Cc1c[nH]c2ccccc12)[C@@H](C)CC)[C@@H](C)CC)[C@@H](C)CC)C(=O)N[C@@H](Cc1c[nH]c2ccccc12)C(=O)N[C@@H](CO)C(=O)N[C@@H](CCCCN)C(=O)N[C@H](C(=O)N[C@@H](CCCNC(=N)N)C(=O)N[C@@H](CC(C)C)C(N)=O)C1CCCCC1
B12: nPDM-66 (peptide)
peptide: H-WYIRWIK[Chg]QIWSK[Chg]RL-NH2
SMILES: CC[C@H](C)[C@H](NC(=O)[C@H](CCC(N)=O)NC(=O)[C@@H](NC(=O)[C@H](CCCCN)NC(=O)[C@@H](NC(=O)[C@H](Cc1c[nH]c2ccccc12)NC(=O)[C@H](CCCNC(=N)N)NC(=O)[C@@H](NC(=O)[C@H](Cc1ccc(O)cc1)NC(=O)[C@@H](N)Cc1c[nH]c2ccccc12)[C@@H](C)CC)[C@@H](C)CC)C1CCCCC1)C(=O)N[C@@H](Cc1c[nH]c2ccccc12)C(=O)N[C@@H](CO)C(=O)N[C@@H](CCCCN)C(=O)N[C@H](C(=O)N[C@@H](CCCNC(=N)N)C(=O)N[C@@H](CC(C)C)C(N)=O)C1CCCCC1
B13: nPDM-67 (peptide)
peptide: H-WYFRWIKIQIWSKLRL-NH2
B14: nPDM-69 (peptide)
peptide: H-YYIR[2Nal]IKIQIWSKLRL-NH2
SMILES: CC[C@H](C)[C@H](NC(=O)[C@H](CCC(N)=O)NC(=O)[C@@H](NC(=O)[C@H](CCCCN)NC(=O)[C@@H](NC(=O)[C@H](Cc1ccc2ccccc2c1)NC(=O)[C@H](CCCNC(=N)N)NC(=O)[C@@H](NC(=O)[C@H](Cc1ccc(O)cc1)NC(=O)[C@@H](N)Cc1ccc(O)cc1)[C@@H](C)CC)[C@@H](C)CC)[C@@H](C)CC)C(=O)N[C@@H](Cc1c[nH]c2ccccc12)C(=O)N[C@@H](CO)C(=O)N[C@@H](CCCCN)C(=O)N[C@@H](CC(C)C)C(=O)N[C@@H](CCCNC(=N)N)C(=O)N[C@@H](CC(C)C)C(N)=O
B15: PDM-29 (peptide)
peptide: {m‑dPEG(4)-Ahx}-YYIEWIKIQIISKLRL-NH2
B16: A-nPDM-55/E31R (peptide)
peptide: H-AWYIRWIKIQIWSKLRL-NH2
B17: nPDM-70 (peptide)
peptide: H-WYIRWIK[Chg]QIWSR[Chg]RL-NH2
SMILES: CC[C@H](C)[C@H](NC(=O)[C@H](CCC(N)=O)NC(=O)[C@@H](NC(=O)[C@H](CCCCN)NC(=O)[C@@H](NC(=O)[C@H](Cc1c[nH]c2ccccc12)NC(=O)[C@H](CCCNC(=N)N)NC(=O)[C@@H](NC(=O)[C@H](Cc1ccc(O)cc1)NC(=O)[C@@H](N)Cc1c[nH]c2ccccc12)[C@@H](C)CC)[C@@H](C)CC)C1CCCCC1)C(=O)N[C@@H](Cc1c[nH]c2ccccc12)C(=O)N[C@@H](CO)C(=O)N[C@@H](CCCNC(=N)N)C(=O)N[C@H](C(=O)N[C@@H](CCCNC(=N)N)C(=O)N[C@@H](CC(C)C)C(N)=O)C1CCCCC1
B18: nPDM-71 (peptide)
peptide: H-WYIRWIR[Chg]QIWSK[Chg]RL-NH2
SMILES: CC[C@H](C)[C@H](NC(=O)[C@H](CCC(N)=O)NC(=O)[C@@H](NC(=O)[C@H](CCCNC(=N)N)NC(=O)[C@@H](NC(=O)[C@H](Cc1c[nH]c2ccccc12)NC(=O)[C@H](CCCNC(=N)N)NC(=O)[C@@H](NC(=O)[C@H](Cc1ccc(O)cc1)NC(=O)[C@@H](N)Cc1c[nH]c2ccccc12)[C@@H](C)CC)[C@@H](C)CC)C1CCCCC1)C(=O)N[C@@H](Cc1c[nH]c2ccccc12)C(=O)N[C@@H](CO)C(=O)N[C@@H](CCCCN)C(=O)N[C@H](C(=O)N[C@@H](CCCNC(=N)N)C(=O)N[C@@H](CC(C)C)C(N)=O)C1CCCCC1
B19: nPDM-72 (peptide)
peptide: H-WYIRWIR[Chg]QIWSR[Chg]RL-NH2
SMILES: CC[C@H](C)[C@H](NC(=O)[C@H](CCC(N)=O)NC(=O)[C@@H](NC(=O)[C@H](CCCNC(=N)N)NC(=O)[C@@H](NC(=O)[C@H](Cc1c[nH]c2ccccc12)NC(=O)[C@H](CCCNC(=N)N)NC(=O)[C@@H](NC(=O)[C@H](Cc1ccc(O)cc1)NC(=O)[C@@H](N)Cc1c[nH]c2ccccc12)[C@@H](C)CC)[C@@H](C)CC)C1CCCCC1)C(=O)N[C@@H](Cc1c[nH]c2ccccc12)C(=O)N[C@@H](CO)C(=O)N[C@@H](CCCNC(=N)N)C(=O)N[C@H](C(=O)N[C@@H](CCCNC(=N)N)C(=O)N[C@@H](CC(C)C)C(N)=O)C1CCCCC1
B20: nPDM-73 (peptide)
peptide: H-WYIRWIR[Chg]QIWSR[Chg]PL-NH2
B21: nPDM-75 (peptide)
peptide: H-WYIRWIR[Chg]QIWPR[Chg]RL-NH2
SMILES: CC[C@H](C)[C@H](NC(=O)[C@H](Cc1ccc(O)cc1)NC(=O)[C@@H](N)Cc1c[nH]c2ccccc12)C(=O)N[C@@H](CCCNC(=N)N)C(=O)N[C@@H](Cc1c[nH]c2ccccc12)C(=O)N[C@H](C(=O)N[C@@H](CCCNC(=N)N)C(=O)N[C@H](C(=O)N[C@@H](CCC(N)=O)C(=O)N[C@H](C(=O)N[C@@H](Cc1c[nH]c2ccccc12)C(=O)N1CCC[C@H]1C(=O)N[C@@H](CCCNC(=N)N)C(=O)N[C@H](C(=O)N[C@@H](CCCNC(=N)N)C(=O)N[C@@H](CC(C)C)C(N)=O)C1CCCCC1)[C@@H](C)CC)C1CCCCC1)[C@@H](C)CC
B22: nPDM-76 (peptide)
peptide: H-WYIRWIR[Chg]PIWSR[Chg]RL-NH2
SMILES: CC[C@H](C)[C@H](NC(=O)[C@H](Cc1ccc(O)cc1)NC(=O)[C@@H](N)Cc1c[nH]c2ccccc12)C(=O)N[C@@H](CCCNC(=N)N)C(=O)N[C@@H](Cc1c[nH]c2ccccc12)C(=O)N[C@H](C(=O)N[C@@H](CCCNC(=N)N)C(=O)N[C@H](C(=O)N1CCC[C@H]1C(=O)N[C@H](C(=O)N[C@@H](Cc1c[nH]c2ccccc12)C(=O)N[C@@H](CO)C(=O)N[C@@H](CCCNC(=N)N)C(=O)N[C@H](C(=O)N[C@@H](CCCNC(=N)N)C(=O)N[C@@H](CC(C)C)C(N)=O)C1CCCCC1)[C@@H](C)CC)C1CCCCC1)[C@@H](C)CC
B23: PDM-30 (peptide)
peptide: {m‑dPEG(4)-Ahx}-WWIEWIKIQIISKLRL-NH2

molecular target: T1, myostatin; test: cell-based or functional assay

Row | Binder | myostatin inhibitory activity at 1 µM (luciferase reporter assay) [% inhibition] | myostatin inhibitory activity at 0.3 µM (luciferase reporter assay) [% inhibition]
1 | B1 | ≥ 40 | –
2 | B2 | ≥ 40 | ≥ 40
3 | B3 | ≥ 40 | –
4 | B4 | ≥ 40 | ≥ 40
5 | B5 | ≥ 40 | –
6 | B6 | ≥ 40 | –
7 | B7 | – | ≥ 40
8 | B8 | – | ≥ 40
9 | B9 | – | ≥ 40
10 | B10 | ≥ 40 | ≥ 40
11 | B11 | ≥ 40 | ≥ 40
12 | B12 | ≥ 40 | ≥ 40
13 | B13 | ≥ 40 | –
14 | B14 | ≥ 40 | ≥ 40
15 | B15 | ≥ 40 | –
16 | B16 | – | ≥ 40
17 | B17 | – | ≥ 40
18 | B18 | – | ≥ 40
19 | B19 | – | ≥ 40
20 | B20 | – | ≥ 40
21 | B21 | – | ≥ 40
22 | B22 | – | ≥ 40
23 | B23 | ≥ 40 | –
